Laboratory results reported in patent US20240301052A1 (LANOVA MEDICINES DEVELOPMENT, published 2024).
“And” between values parts separate entries of the source, which are not always exact repeats. Identical values can stand only once. Like-named read-outs stand apart in the source and are kept apart here.

Columns and labels:
human SLC34A2 [1] = biological target: T1, human SLC34A2 (human, UniProt O95436 1-690); experiment: FACS, RMG-1 cells
T1 sequence (looked up): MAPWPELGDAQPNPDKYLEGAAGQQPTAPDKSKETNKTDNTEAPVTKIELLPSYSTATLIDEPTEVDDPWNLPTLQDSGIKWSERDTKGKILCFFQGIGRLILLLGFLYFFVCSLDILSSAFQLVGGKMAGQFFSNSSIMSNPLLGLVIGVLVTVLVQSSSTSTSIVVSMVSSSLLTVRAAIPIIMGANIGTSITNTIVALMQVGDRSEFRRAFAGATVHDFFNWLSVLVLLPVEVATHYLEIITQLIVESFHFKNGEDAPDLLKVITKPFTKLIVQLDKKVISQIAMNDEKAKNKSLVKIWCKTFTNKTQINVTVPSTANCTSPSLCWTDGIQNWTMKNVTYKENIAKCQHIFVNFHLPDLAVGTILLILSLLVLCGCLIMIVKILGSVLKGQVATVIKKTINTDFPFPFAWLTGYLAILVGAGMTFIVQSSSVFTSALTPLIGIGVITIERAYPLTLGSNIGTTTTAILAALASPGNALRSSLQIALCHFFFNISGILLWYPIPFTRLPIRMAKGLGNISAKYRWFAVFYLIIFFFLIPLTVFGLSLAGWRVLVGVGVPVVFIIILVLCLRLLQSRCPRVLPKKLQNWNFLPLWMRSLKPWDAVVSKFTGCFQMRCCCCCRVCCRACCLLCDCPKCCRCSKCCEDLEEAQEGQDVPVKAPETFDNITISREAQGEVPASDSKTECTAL

human SLC34A2 [2] = biological target: T1, human SLC34A2; experiment: cell-based or functional assay
human SLC34A2 [3] = biological target: T1, human SLC34A2; experiment: FACS, OVCAR3 cells
human SLC34A2 [4] = biological target: T1, human SLC34A2; experiment: FACS, RMG-1 cells; remark: listed apart in the source
Rhesus SLC34A2 [5] = biological target: T2, Rhesus SLC34A2 (Rhesus, UniProt F7HDA3 1-690); experiment: FACS, HEK293/Rhesus SLC34A2 cells
T2 construct: whole, on cells
T2 sequence: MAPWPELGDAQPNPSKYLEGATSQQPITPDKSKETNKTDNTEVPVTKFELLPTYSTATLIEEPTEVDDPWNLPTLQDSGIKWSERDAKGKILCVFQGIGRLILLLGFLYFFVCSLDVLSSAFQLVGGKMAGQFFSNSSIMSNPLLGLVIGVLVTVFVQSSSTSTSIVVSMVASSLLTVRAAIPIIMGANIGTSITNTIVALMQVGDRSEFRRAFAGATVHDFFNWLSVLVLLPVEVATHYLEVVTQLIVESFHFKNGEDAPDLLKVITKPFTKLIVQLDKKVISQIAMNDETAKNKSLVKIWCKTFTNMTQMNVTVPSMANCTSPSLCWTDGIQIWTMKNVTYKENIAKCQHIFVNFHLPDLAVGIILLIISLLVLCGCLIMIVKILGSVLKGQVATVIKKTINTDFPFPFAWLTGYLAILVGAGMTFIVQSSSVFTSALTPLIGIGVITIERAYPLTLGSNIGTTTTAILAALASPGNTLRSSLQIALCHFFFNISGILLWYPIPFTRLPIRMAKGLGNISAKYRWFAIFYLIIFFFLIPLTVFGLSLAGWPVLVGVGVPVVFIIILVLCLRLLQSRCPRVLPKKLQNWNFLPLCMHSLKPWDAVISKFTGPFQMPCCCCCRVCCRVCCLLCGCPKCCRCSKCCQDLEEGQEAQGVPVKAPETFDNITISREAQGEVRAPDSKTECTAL

Rhesus SLC34A2 [6] = biological target: T2, Rhesus SLC34A2; experiment: FACS, HEK293/Rhesus SLC34A2 cells; remark: listed apart in the source
Rhesus SLC34A2 [7] = biological target: T2, Rhesus SLC34A2; experiment: FACS, HEK293/Rhesus SLC34A2 cells; remark: listed apart in the source
human SLC34A2 [8] = biological target: T1, human SLC34A2; experiment: FACS, OVCAR3 cells; remark: listed apart in the source
human SLC34A2 [9] = biological target: T1, human SLC34A2; experiment: FACS, HEK293/human SLC34A2 cells
human SLC34A2 [10] = biological target: T1, human SLC34A2; experiment: FACS, HEK293/human SLC34A2 cells; remark: listed apart in the source
human SLC34A2 [11] = biological target: T1, human SLC34A2; experiment: FACS, OVCAR3 cells; remark: listed apart in the source
human SLC34A2 [12] = biological target: T1, human SLC34A2; experiment: FACS, HEK293/human SLC34A2 cells; remark: listed apart in the source
human SLC34A2 [13] = biological target: T1, human SLC34A2; experiment: FACS, OVCAR3 cells; remark: listed apart in the source
human SLC34A2 [14] = biological target: T1, human SLC34A2; experiment: FACS, OVCAR3 cells; remark: listed apart in the source

B1: XMT-1536 (antibody, INN chains, looked up, V domains shown)
VH: QVQLVQSGAEVVKPGASVKMSCKASGYTFTGYNIHWVKQAPGQGLEWIGAIYPGNGDTSYKQKFRGRATLTADTSTSTVYMELSSLRSEDSAVYYCARGETARATFAYWGQGTLVTVSS
VL: DIQMTQSPSSLSASVGDRVTITCSASQDIGNFLNWYQQKPGKTVKVLIYYTSSLYSGVPSRFSGSGSGTDYTLTISSLQPEDFATYYCQQYSKLPLTFGQGTKLELK
modifications: rilsodotin auristatin payload
Human SLC34A2 [1]
  EC50: 7.17 nM
  Top: 9940 MFI
Human SLC34A2 [2]
  ADCC reporter EC50: 0.76 nM
  ADCC reporter Top (MFI): 127000 MFI
  ADCC-HEK293: 0.76 nM
  ADCC-OVCAR3: 0.25 nM
  Cytotoxic Effect - MDAH-2774: 0.28 nM
  Cytotoxic Effect - OVCAR3: 0.029 nM
  cytotoxicity EC50: 0.72 nM
  cytotoxicity Inhibition %: 100%
Human SLC34A2 [3]
  EC50: 6.82 nM
Human SLC34A2 [4]
  EC50: 4.87 nM
  Top (MFI): 9110 MFI
Rhesus SLC34A2 [5]
  EC50: 5.8 nM
  Top (MFI): 27000 MFI
Rhesus SLC34A2 [6]
  EC50: 2.54 nM
  Top (MFI): 11900 MFI
Rhesus SLC34A2 [7]
  EC50: 2.6 nM
  Top (MFI): 11500 MFI
Human SLC34A2 [8]
  EC50: 3.8 nM
  Top: 29000 MFI
  Top (MFI): 58400 MFI
Human SLC34A2 [9]
  EC50: 2.68 nM
  Top: 32400 MFI
Human SLC34A2 [10]
  EC50: 2.5 nM
  Top (MFI): 27700 MFI
Human SLC34A2 [11]
  EC50: 6.8 nM
Human SLC34A2 [12]
  EC50: 4.05 nM
  Top: 34700 MFI
Human SLC34A2 [13]
  EC50: 4.31 nM and 3.99 nM
  Top (MFI): 40200 MFI and 26700 MFI
Human SLC34A2 [14]
  EC50: 6.87 nM
  Top (MFI): 29000 MFI
